Test [1] addresses T1, KLH (Sigma-Aldrich, H8283).
T1 construct: Coating protein of the non-specific ELISA (NS-ELISA)
The test can be described thus: NS-ELISA, plate coated with KLH, mAb at 100 nM; ratio of signal to a buffer well. On the technique in general: In an ELISA, binding on a coated surface is turned into a signal by an enzyme label.
Method: NS-ELISA was used to measure the propensity of the antibodies to bind to a range of biomolecules to emulate the undesirable non-specific interactions to biological matrices in vivo as described below.
NS-ELISA was carried out in Corning@ 96-well EIA/RIA Easy Wash™ Clear Flat Bottom Polystyrene High Bind Microplate coated overnight at 4° C. with 50 μL of Heparin (Sigma, H3149) diluted with 50 mM sodium carbonate pH 9.6 to a final concentration of 250 μg/mL. The plate was incubated for 2 days at room temperature, wells that were coated with heparin were not covered to allow air dry. […] 50 μL each of insulin, KLH, dsDNA and ssDNA were added to a 96 well plate, followed by the incubation at 37° C. for 2 h. The coating materials were removed, and the plate was blocked with 200 μL of Gibco™ PBS pH7.4, 0.1% Tween®20, and incubated for 1 h at room temperature with shaking at 200 rpm. The plate was washed 3 times with Gibco™ PBS pH7.4, 0.1% Tween 20. 50 μL of each mAb at 100 nM (15 mg/mL) in Gibco™ PBS pH 7.4, 0.1% Tween®20 was added in duplicate to the wells and incubated for 1 h at room temperature with shaking at 200 rpm. […] Plates were incubated for 1 h at room temperature, with shaking at 200 rpm. The plate was washed three times with Gibco™ PBS pH7.4, 0.1% Tween 20, and 100 μL of TMB substrate (Cell Signaling Technology©, 7004P6) added to each well. […] Binding scores were calculated as the ratio of the ELISA signal of the antibody to the signal of a well containing buffer instead of the primary antibody. The cutoffs considered for each binding molecule (ssDNA. KLH, Insulin, dsDNA and Heparin) were internally calculated, based on the average of Zymeworks Inc. produced antibodies and antibodies benchmarks published in the literature.

For test [2], the target named is T2, human sodium-dependent phosphate transporter 2B (NaPi2b) (human, UniProt O95436 1-690).
T2 construct: also called hNaPi2b; Hu NaPi2b
T2 sequence: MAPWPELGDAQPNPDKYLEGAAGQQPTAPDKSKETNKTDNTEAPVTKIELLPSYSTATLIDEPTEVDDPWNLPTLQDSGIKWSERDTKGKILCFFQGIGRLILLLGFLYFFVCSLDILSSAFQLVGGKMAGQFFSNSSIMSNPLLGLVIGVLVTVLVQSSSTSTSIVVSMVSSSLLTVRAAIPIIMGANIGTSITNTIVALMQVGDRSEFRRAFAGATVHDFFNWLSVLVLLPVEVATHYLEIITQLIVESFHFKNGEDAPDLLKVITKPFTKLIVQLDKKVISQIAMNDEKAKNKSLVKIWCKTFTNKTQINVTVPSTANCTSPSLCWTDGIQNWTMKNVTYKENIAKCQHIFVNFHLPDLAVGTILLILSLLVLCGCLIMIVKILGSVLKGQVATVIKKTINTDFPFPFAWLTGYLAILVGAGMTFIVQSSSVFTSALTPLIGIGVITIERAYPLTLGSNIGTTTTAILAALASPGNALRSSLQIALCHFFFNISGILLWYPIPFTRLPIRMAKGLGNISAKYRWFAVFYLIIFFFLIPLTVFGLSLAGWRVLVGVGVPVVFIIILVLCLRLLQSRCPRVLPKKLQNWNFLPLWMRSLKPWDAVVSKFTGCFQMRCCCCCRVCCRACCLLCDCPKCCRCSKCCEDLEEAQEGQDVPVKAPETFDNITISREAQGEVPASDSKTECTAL
The test can be described thus: KinExA, IGROV-1 cells, monovalent format. (Kinetic exclusion samples the free partner from a solution-phase mixture.)
Method: The cell-binding assay was set up using the antibody constructs or variants as constant binding partner at two different concentrations of 50 μM and 500 μM. For the titration curve with antibody variants fixed at 50 μM, at least 10 million IGROV-1 cells were used as titrant. For the titration curve with antibody variants fixed at 500 μM, at least 5 million cells were used as titrant. The antibody variants and cells were mixed in PBS pH 7.4, 1 mg/mL BSA, 0.2% NaN₃ and incubated at 4° C. for 7 days with gentle rotation until equilibrium was reached. After incubation, the mixture of antibody variants and cells was centrifuged to separate the cells from the unbound free antibody variants.
N-curve analysis was used to calculate the affinity and receptor expression level with the concentrations of antibody variant as reference point.

The target in test [3] is T2, human sodium-dependent phosphate …. Nature of the test: cell-based or functional assay.
A further test addresses T3, cynomolgus monkey NaPi2b (cynomolgus monkey, UniProt O95436 1-690 (human entry)).
T3 construct: also called Cyno NaPi2b; Cy NaPi2b
T3 chain: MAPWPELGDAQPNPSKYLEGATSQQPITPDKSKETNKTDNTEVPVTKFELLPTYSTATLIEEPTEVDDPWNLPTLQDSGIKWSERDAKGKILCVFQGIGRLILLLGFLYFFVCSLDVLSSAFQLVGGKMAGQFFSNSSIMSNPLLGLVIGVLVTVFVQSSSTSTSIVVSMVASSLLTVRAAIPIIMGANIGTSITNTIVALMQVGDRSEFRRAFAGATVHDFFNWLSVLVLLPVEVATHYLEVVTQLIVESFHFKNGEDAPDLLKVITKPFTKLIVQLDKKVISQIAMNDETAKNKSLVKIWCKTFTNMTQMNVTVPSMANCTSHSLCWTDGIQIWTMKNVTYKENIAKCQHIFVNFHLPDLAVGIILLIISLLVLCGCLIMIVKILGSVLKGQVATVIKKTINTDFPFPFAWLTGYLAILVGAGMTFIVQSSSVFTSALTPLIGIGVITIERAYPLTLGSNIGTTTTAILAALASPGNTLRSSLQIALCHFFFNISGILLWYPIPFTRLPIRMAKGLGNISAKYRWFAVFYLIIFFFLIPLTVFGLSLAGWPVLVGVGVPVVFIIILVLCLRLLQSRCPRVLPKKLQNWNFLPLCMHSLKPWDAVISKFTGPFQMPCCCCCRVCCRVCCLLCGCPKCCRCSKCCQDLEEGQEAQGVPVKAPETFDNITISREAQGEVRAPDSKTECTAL
Nature of the test: flow cytometry, HEK293-6e cells transfected with cynomolgus NaPi2b.

The target in test [4] is T4, human sodium-dependent phosphate transporter 2B (NaPi2b) (human, UniProt O95436 1-690).
T4 sequence: T2 sequence
Nature of the test: cell-based or functional assay. The source holds these as a separate data set.

In test [5] the target is T4, human sodium-dependent phosphate …. Nature of the test: cell-based or functional assay. The source holds these as a separate data set.
For test [6] the target is unchanged. The test can be described thus: cell-based or functional assay. This is another data set of the same source.
For test [7] the target is unchanged. The test can be described thus: cell-based or functional assay. The source holds these as a separate data set.
Test [8] shares this target. Nature of the test: cell-based or functional assay. This is another data set of the same source.

The values below come from patent US20250235548A1 (Zymeworks, published 2025).

Numbering of substitutions follows the chain as printed. Like-named read-outs stand apart in the source and are kept apart here.

B1: v29452 humanized anti-NaPi2b antibody (antibody, human IgG1, kappa, V domains shown)
VH: QVQLVQSGAEVKKPGASVKVSCKASGFTFTSYNVHWVRQAPGQGLEWMGAISPGNGDLSYAQKFQGRVTMTRDTSTSTVYMELSSLRSEDTAVYYCARGRTGMGAVDYWGQGTLVTVSS
VL: DVQMTQSPSSLSASVGDRVTITCRASQDVYSYLNWYQQKPGKAVKLLIYYTSRLQSGVPSRFSGSGSGTDYTLTISSLQPEDIATYYCQQYNIFPWTFGQGTKLEIKR
notes: Full-size IgG1/kappa; also called H1L3
B1: in test [1], the NS-ELISA binding score is 1.34.

B2: v36123, monovalent format of humanized antibody variant 29452 (antibody, V domains shown)
VH: B1 VH
VL: DVQMTQSPSSLSASVGDRVTITCRASQDVYSYLNWYQQKPGKAVKLLIYYTSRLQSGVPSRFSGSGSGTDYTLTISSLQPEDIATYYCQQYNIFPWTFGQGTKLEIK
notes: also called VH1/VL3
Consider B2, for which the “fold lower binding affinity than chimeric parental antibody construct” value in test [2] is around 2 fold.

B3: v36124, monovalent format of humanized antibody variant 29456 (antibody, V domains shown)
VH: B1 VH
VL: B2 VL with I83F
notes: also called VH1/VL2
In the case of B3, in test [2], the “fold lower binding affinity than chimeric parental antibody construct” value was around 2 fold.

B4: v29456 humanized anti-NaPi2b antibody (antibody, human IgG1, kappa)
heavy: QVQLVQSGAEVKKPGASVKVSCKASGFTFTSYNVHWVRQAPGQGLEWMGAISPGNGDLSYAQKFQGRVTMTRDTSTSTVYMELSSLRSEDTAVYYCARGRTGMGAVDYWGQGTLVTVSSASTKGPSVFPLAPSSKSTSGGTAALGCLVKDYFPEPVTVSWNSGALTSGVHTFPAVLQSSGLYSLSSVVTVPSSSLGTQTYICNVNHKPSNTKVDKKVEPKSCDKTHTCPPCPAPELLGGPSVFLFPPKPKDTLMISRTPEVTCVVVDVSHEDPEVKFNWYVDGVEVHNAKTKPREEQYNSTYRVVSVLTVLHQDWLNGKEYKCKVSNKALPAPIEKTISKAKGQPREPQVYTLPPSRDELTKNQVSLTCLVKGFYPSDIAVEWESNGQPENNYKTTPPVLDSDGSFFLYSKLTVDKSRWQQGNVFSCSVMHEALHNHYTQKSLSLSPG
light: DVQMTQSPSSLSASVGDRVTITCRASQDVYSYLNWYQQKPGKAVKLLIYYTSRLQSGVPSRFSGSGSGTDYTLTISSLQPEDFATYYCQQYNIFPWTFGQGTKLEIKRTVAAPSVFIFPPSDEQLKSGTASVVCLLNNFYPREAKVQWKVDNALQSGNSQESVTEQDSKDSTYSLSSTLTLSKADYEKHKVYACEVTHQGLSSPVTKSFNRGEC
notes: Full-size IgG1/kappa; also called H1L2
As to B4, the NS-ELISA binding score in test [1] came to 1.37. In addition, in test [3], the “Internalized Fluorescence Fold-Over Palivizumab, HCC-78, 5 hrs, 10 nM” value came to 25.3 fold; the “Internalized Fluorescence Fold-Over Palivizumab, HCC-78, 24 hrs, 10 nM” value worked out at 59.9 fold; the “Internalized Fluorescence Fold-Over Palivizumab, NCI-H441, 5 hrs, 10 nM” value was found to be 2.4 fold; the “Internalized Fluorescence Fold-Over Palivizumab, NCI-H441, 24 hrs, 10 nM” value worked out at 4 fold. Further, in the test with cynomolgus monkey NaPi2b, the “fold lower apparent Kd than v18992 (MX35)” value came to 10 fold and the “fold lower apparent Kd than v18993 (lifastuzumab)” value worked out at 2 fold.

B5: v18993 (lifastuzumab)-MCvcPABC-MMAE DAR 4 (antibody, human IgG1, kappa)
heavy 1: GEVQLVESGGGLVQPGGSLRLSCAASGFSFSDFAMSWVRQAPGKGLEWVATIGRVAFHTYYPDSMKGRFTISRDNSKNTLYLQMNSLRAEDTAVYYCARHRGFDVGHFDFWGQGTLVTVSSASTKGPSVFPLAPSSKSTSGGTAALGCLVKDYFPEPVTVSWNSGALTSGVHTFPAVLQSSGLYSLSSVVTVPSSSLGTQTYICNVNHKPSNTKVDKKVEPKSCDKTHTCPPCPAPELLGGPSVFLFPPKPKDTLMISRTPEVTCVVVDVSHEDPEVKFNWYVDGVEVHNAKTKPREEQYNSTYRVVSVLTVLHQDWLNGKEYKCKVSNKALPAPIEKTISKAKGQPREPQVYVYPPSRDELTKNQVSLTCLVKGFYPSDIAVEWESNGQPENNYKTTPPVLDSDGSFALVSKLTVDKSRWQQGNVFSCSVMHEALHNHYTQKSLSLSPG
heavy 2: not shown
light: GDIQMTQSPSSLSASVGDRVTITCRSSETLVHSSGNTYLEWYQQKPGKAPKLLIYRVSNRFSGVPSRFSGSGSGTDFTLTISSLQPEDFATYYCFQGSFNPLTFGQGTKVEIKRTVAAPSVFIFPPSDEQLKSGTASVVCLLNNFYPREAKVQWKVDNALQSGNSQESVTEQDSKDSTYSLSSTLTLSKADYEKHKVYACEVTHQGLSSPVTKSFNRGEC
modifications: MCvcPABC-MMAE drug-linker; DAR 4 for the whole antibody; attachment residues not stated
On to B5, for which, in [4], the “EC50 of cytotoxicity, H441 3D spheroids” value came to 11.7 nM; the “EC50 of cytotoxicity, IGROV-1 3D spheroids” value turned out to be 0.69 nM; the “EC50 of cytotoxicity, TOV-21G 3D spheroids” value was determined as 25.5 nM.

B6: v29456-MT-GGFG-AM-Compound 141 DAR 8 (antibody, human IgG1, kappa)
heavy: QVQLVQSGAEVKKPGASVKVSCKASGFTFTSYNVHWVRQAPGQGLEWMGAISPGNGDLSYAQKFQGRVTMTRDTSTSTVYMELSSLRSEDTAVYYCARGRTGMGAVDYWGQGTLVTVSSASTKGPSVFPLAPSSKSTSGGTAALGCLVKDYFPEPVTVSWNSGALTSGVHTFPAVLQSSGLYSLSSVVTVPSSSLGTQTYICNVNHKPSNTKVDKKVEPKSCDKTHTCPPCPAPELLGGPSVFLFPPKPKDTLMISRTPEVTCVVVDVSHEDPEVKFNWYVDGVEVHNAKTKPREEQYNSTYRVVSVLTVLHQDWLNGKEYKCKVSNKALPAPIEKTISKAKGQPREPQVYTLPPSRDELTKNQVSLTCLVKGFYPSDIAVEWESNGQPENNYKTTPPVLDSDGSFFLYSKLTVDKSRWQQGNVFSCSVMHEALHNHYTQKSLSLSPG
light: B4 light
modifications: MT-GGFG-AM-Compound 141 drug-linker on reduced cysteines (maleimide); DAR 8 for the whole antibody
With B6, in test [5], the “EC50 of cytotoxicity, HCC-78 3D spheroids, 6 days, CellTiter-Glo 3D” value came to 0.33 nM and the “EC50 of cytotoxicity, IGROV-1 3D spheroids, 6 days, CellTiter-Glo 3D” value was 0.21 nM. Also, in [6], the “EC50 of cytotoxicity, 2D monolayer, HCC-78 cells, 4 days, CellTiter-Glo” value is 0.26 nM and the “EC50 of cytotoxicity, 2D monolayer, IGROV-1 cells, 4 days, CellTiter-Glo” value turned out to be 1.56 nM.

B7: v29456-MC-GGFG-AM-Compound 139 DAR 4 (antibody, human IgG1, kappa)
heavy: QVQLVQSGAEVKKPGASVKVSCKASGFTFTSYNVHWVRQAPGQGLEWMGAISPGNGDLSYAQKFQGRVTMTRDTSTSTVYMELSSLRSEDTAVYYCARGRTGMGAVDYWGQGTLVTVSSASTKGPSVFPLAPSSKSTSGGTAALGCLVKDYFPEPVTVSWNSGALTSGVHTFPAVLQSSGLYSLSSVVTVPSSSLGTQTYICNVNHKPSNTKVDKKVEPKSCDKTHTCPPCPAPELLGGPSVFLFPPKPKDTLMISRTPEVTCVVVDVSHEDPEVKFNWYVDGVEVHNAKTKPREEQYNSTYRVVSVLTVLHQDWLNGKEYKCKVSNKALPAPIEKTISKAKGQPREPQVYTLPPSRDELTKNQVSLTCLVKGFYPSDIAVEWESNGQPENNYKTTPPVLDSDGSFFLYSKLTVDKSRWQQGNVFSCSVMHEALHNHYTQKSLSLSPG
light: B4 light
modifications: MC-GGFG-AM-Compound 139 drug-linker on reduced cysteines (maleimide); target DAR 4, printed DAR 3.4, for the whole antibody
Consider B7, for which, in test [7], the “EC50 of cytotoxicity, IGROV-1 3D spheroids” value is 0.88 nM and the “EC50 of cytotoxicity, TOV-21G:HDFa (1:1) 3D spheroids” value (“EC50 of cytotoxicity, TOV-21G:HDFa” below) came to 0.76 nM. For the same molecule, the “EC50 of cytotoxicity, 2D monolayer, IGROV-1 cells” value in test [8] is 5.46 nM.

B8: v29456-MC-GGFG-AM-DXd1 DAR 8 (antibody, human IgG1, kappa)
heavy: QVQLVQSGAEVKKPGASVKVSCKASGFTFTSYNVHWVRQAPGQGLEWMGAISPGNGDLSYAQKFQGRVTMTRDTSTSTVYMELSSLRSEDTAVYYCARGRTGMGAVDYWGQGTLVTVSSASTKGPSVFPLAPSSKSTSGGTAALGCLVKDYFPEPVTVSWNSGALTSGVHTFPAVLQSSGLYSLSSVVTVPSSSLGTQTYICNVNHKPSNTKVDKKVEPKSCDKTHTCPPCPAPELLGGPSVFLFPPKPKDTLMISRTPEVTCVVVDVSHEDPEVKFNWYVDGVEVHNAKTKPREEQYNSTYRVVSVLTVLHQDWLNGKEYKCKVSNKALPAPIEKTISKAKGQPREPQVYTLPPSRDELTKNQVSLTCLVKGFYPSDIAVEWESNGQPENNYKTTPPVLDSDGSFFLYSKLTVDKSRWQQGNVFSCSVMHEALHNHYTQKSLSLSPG
light: B4 light
modifications: MC-GGFG-AM-DXd1 drug-linker on reduced cysteines (maleimide); DAR 8 for the whole antibody
B8: in test [5], the “EC50 of cytotoxicity, HCC-78 3D spheroids, 6 days, CellTiter-Glo 3D” value was 0.6 nM and the “EC50 of cytotoxicity, IGROV-1 3D spheroids, 6 days, CellTiter-Glo 3D” value amounted to 0.27 nM. In addition, in [6], the “EC50 of cytotoxicity, 2D monolayer, HCC-78 cells, 4 days, CellTiter-Glo (row printed as v29456-MT-GGFG-AM-DXd1)” value was 0.55 nM and the “EC50 of cytotoxicity, 2D monolayer, IGROV-1 cells, 4 days, CellTiter-Glo (row printed as v29456-MT-GGFG-AM-DXd1)” value was 0.45 nM.

B9: v29456-MC-GGFG-AM-Compound 139 DAR 8 (antibody, human IgG1, kappa)
heavy: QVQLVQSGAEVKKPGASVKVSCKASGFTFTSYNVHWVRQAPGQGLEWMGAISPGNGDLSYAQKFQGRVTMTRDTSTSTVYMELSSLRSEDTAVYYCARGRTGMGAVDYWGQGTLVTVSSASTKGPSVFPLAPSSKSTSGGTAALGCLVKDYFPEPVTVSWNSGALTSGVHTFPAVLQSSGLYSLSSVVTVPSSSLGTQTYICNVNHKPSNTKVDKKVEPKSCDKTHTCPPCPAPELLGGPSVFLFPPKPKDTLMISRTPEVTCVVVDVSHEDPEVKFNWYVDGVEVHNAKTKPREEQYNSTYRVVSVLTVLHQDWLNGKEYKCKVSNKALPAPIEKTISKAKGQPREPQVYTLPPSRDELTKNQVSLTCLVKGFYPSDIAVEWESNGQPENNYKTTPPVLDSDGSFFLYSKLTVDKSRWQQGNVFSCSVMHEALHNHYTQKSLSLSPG
light: B4 light
modifications: MC-GGFG-AM-Compound 139 drug-linker on reduced cysteines (maleimide); DAR 8 for the whole antibody
Turning to B9, in [7], the “EC50 of cytotoxicity, IGROV-1 3D spheroids” value came out at 0.31 nM and the “EC50 of cytotoxicity, TOV-21G:HDFa” value came to 0.24 nM. In test [4], the “EC50 of cytotoxicity, H441 3D spheroids” value was 1.57 nM; the “EC50 of cytotoxicity, IGROV-1 3D spheroids” value was 0.55 nM; the “EC50 of cytotoxicity, TOV-21G 3D spheroids” value is 0.54 nM. For the same molecule, in test [8], the “EC50 of cytotoxicity, 2D monolayer, IGROV-1 cells” value was found to be 0.39 nM and the “EC50 of cytotoxicity, 2D monolayer, TOV-21G cells” value was determined as 4.3 nM.

B10: v29456-MC-GGFG-Compound 141 DAR 8 (antibody, human IgG1, kappa)
heavy: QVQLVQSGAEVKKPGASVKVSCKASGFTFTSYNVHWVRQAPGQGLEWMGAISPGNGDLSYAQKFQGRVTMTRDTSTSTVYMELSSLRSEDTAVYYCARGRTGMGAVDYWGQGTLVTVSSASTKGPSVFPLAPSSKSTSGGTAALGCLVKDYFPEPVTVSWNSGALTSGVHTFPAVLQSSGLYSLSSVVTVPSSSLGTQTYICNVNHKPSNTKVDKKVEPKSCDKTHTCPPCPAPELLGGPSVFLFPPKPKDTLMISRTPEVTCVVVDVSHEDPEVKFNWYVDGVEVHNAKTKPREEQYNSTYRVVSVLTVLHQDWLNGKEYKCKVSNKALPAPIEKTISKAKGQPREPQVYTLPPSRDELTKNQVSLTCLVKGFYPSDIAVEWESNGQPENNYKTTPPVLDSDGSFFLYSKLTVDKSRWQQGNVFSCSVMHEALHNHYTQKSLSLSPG
light: B4 light
modifications: MC-GGFG-Compound 141 drug-linker on reduced cysteines (maleimide); DAR 8 for the whole antibody
In the case of B10, in test [7], the “EC50 of cytotoxicity, IGROV-1 3D spheroids” value worked out at 0.44 nM and the “EC50 of cytotoxicity, TOV-21G:HDFa” value amounted to 0.9 nM. In addition, in test [8], the “EC50 of cytotoxicity, 2D monolayer, IGROV-1 cells” value came to 3.01 nM and the “EC50 of cytotoxicity, 2D monolayer, TOV-21G cells” value is 0.93 nM.

B11: v29456-MC-GGFG-Compound 141 DAR 4 (antibody, human IgG1, kappa)
heavy: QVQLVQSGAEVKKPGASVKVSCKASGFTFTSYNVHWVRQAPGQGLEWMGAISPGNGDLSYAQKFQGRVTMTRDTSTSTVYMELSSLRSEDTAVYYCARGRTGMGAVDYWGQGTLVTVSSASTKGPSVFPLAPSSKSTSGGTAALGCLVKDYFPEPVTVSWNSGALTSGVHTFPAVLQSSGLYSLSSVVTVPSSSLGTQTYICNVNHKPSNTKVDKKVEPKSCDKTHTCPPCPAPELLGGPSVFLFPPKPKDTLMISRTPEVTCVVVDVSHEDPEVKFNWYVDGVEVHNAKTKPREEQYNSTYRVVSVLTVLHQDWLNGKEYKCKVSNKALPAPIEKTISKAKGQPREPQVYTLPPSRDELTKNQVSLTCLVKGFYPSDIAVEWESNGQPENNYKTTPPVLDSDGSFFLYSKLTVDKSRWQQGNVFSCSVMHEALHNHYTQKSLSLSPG
light: B4 light
modifications: MC-GGFG-Compound 141 drug-linker on reduced cysteines (maleimide); target DAR 4, printed DAR 3.4, for the whole antibody
For the molecule B11, in [7], the “EC50 of cytotoxicity, IGROV-1 3D spheroids” value came to 1.31 nM and the “EC50 of cytotoxicity, TOV-21G:HDFa” value stood at 0.99 nM. Further, the “EC50 of cytotoxicity, 2D monolayer, IGROV-1 cells” value in test [8] turned out to be 16.4 nM.

B12: v23855, parental mouse-human chimeric anti-NaPi2b antibody (antibody, human IgG1, kappa, V domains shown)
VH: QAYLQQSGAELVRPGASVKMSCKASGFTFTSYNVHWVKQTPRQGLEWIAAISPGNGDLSYNQRFKDKATLTVDRSSSTAYMQLSGLTSEDSAVYFCARGRTGMGAVDYWGQGTSVTVSS
VL: DVQMTQTASSLSASLGDRVTISCRASQDVYSYLNWYQQKPHGTVKLLIYYTSRLQSGVPSRFTGSGSGTDYSLTISNLEPEDIATYYCQQYNIFPWTFGGGTKLEIKR
notes: Full-size antibody; also called parental chimeric
In the case of B12, in [1], the NS-ELISA binding score turned out to be 2.38.
